The results in this text go back to article PMC4136698.

Read-outs that look alike come from different tables or passages of the source.

Holding throughout (test): pull-down
For experiment [1], the target named is SH2 affinity peptide (EPQpYEEIPIYL).
The target is the same in experiment [2]. This is another data set of the same source.
Experiment [3] deals with SNAP tag–polyproline peptide fusion (…).

Consider Hck (residues 84–531) (enzyme), for which the percent retained relative to Hck–1 was determined as 2% in experiment [1] and 17% in experiment [2].
With Hck^Y527F (enzyme), in experiment [3], the percent of kinase retained by the immobilized SH3 domain ligand is 38% and the percent of total kinase retained on beads came to 2%.
